B1: FEM1A (parent)
chain: NIVEYLIQEQPGQEQVAGGEAQPG
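Further: lentivirally expressed fusions sorted by FACS into six bins by GFP to DsRed ratio, PSI derived from sequencing read proportions per bin multiplied by bin number.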

Variants of B1 are the subject of this data set. Put plainly: protein stability index of a GFP-peptide fusion (GPS, HEK-293T) (PSI 1-6); higher = more stable. The conditions noted are these: c terminus: a fixed tail appended.
As for NIVEYLIQEQPGQEQVAHGEAQPG, the protein stability index was found to be 4.47.
The result for NIVEYLIQEQPGQEQVAQGEAQPG reads 4.7; that for NIVEYLIQEQPGQEQVAKGEAQPG, 3.75; that for NIVEYLIQEQPGQEQVACGEAQPG, 3.8.
Next, NIVEYLIQEQPGQEQVAFGEAQPG: 2.94; NIVEYLIQEQPGQEQVAMGEAQPG: 4.31.
Next, NIVEYLIQEQPGQEQVALGEAQPG: 3.54; NIVEYLIQEQPGQEQVARGEAQPG: 4.15.
Take NIVEYLIQEQPGQEQVAPGEAQPG: the protein stability index worked out at 4.3.
Next, NIVEYLIQEQPGQEQVAVGEAQPG: 3.61; NIVEYLIQEQPGQEQVAEGEAQPG: 4.9.
Next, NIVEYLIQEQPGQEQVAWGEAQPG: 3.12.
Next, NIVEYLIQEQPGQEQVAAGEAQPG: 4.2; NIVEYLIQEQPGQEQVADGEAQPG: 5.01.
On to NIVEYLIQEQPGQEQVAIGEAQPG, for which the protein stability index came to 3.85.
For NIVEYLIQEQPGQEQVASGEAQPG, the protein stability index worked out at 3.78.
Next, NIVEYLIQEQPGQEQVAYGEAQPG: 3.36; NIVEYLIQEQPGQEQVATGEAQPG: 4.2.
With NIVEYLIQEQPGQEQVANGEAQPG, the protein stability index turned out to be 4.16.
Next, NIVEYLIQEQPGQEQVAGYEAQPG: 3.47; NIVEYLIQEQPGQEQVAGWEAQPG: 2.99.
The result for NIVEYLIQEQPGQEQVAGCEAQPG reads 4.06.
Next, NIVEYLIQEQPGQEQVAGIEAQPG: 3.23.
Consider NIVEYLIQEQPGQEQVAGHEAQPG, for which the protein stability index was 4.04.
With NIVEYLIQEQPGQEQVAGVEAQPG, the protein stability index stood at 3.96.
Next, NIVEYLIQEQPGQEQVAGKEAQPG: 4.22; NIVEYLIQEQPGQEQVAGREAQPG: 3.66.
The result for NIVEYLIQEQPGQEQVAGPEAQPG reads 4.16; that for NIVEYLIQEQPGQEQVAGLEAQPG, 3.6.
Next, NIVEYLIQEQPGQEQVAGFEAQPG: 3.31.
In the case of NIVEYLIQEQPGQEQVAGQEAQPG, the protein stability index is 4.09.
The result for NIVEYLIQEQPGQEQVAGDEAQPG reads 4.75.
Next, NIVEYLIQEQPGQEQVAGSEAQPG: 4.65; NIVEYLIQEQPGQEQVAGAEAQPG: 4.24; NIVEYLIQEQPGQEQVAGMEAQPG: 3.72.
Next, NIVEYLIQEQPGQEQVAGEEAQPG: 5.05; NIVEYLIQEQPGQEQVAGTEAQPG: 4.18.
As to NIVEYLIQEQPGQEQVAGNEAQPG, the protein stability index is 4.43.
The result for NIVEYLIQEQPGQEQVAGGIAQPG reads 3.53; that for NIVEYLIQEQPGQEQVAGGWAQPG, 2.62; that for NIVEYLIQEQPGQEQVAGGPAQPG, 3.79.
Next, NIVEYLIQEQPGQEQVAGGGAQPG: 4.38; NIVEYLIQEQPGQEQVAGGLAQPG: 3.54.
The result for NIVEYLIQEQPGQEQVAGGDAQPG reads 4.59.
In the case of NIVEYLIQEQPGQEQVAGGNAQPG, the protein stability index worked out at 3.73.
The result for NIVEYLIQEQPGQEQVAGGMAQPG reads 3.13; that for NIVEYLIQEQPGQEQVAGGRAQPG, 3.79; that for NIVEYLIQEQPGQEQVAGGYAQPG, 2.34.
Regarding NIVEYLIQEQPGQEQVAGGHAQPG, the protein stability index was 4.1.
Next, NIVEYLIQEQPGQEQVAGGTAQPG: 3.63; NIVEYLIQEQPGQEQVAGGSAQPG: 3.41.
The result for NIVEYLIQEQPGQEQVAGGVAQPG reads 3.49.
The result for NIVEYLIQEQPGQEQVAGGQAQPG reads 3.9; that for NIVEYLIQEQPGQEQVAGGFAQPG, 3.46; that for NIVEYLIQEQPGQEQVAGGCAQPG, 3.68.
NIVEYLIQEQPGQEQVAGGKAQPG: the protein stability index is 4.25.
Next, NIVEYLIQEQPGQEQVAGGAAQPG: 3.89; NIVEYLIQEQPGQEQVAGGEAQQG: 3.7; NIVEYLIQEQPGQEQVAGGEAQYG: 3.59.
The result for NIVEYLIQEQPGQEQVAGGEAQWG reads 3.03.
The result for NIVEYLIQEQPGQEQVAGGEAQFG reads 3.66; that for NIVEYLIQEQPGQEQVAGGEAQNG, 4.25; that for NIVEYLIQEQPGQEQVAGGEAQLG, 4.24.
As to NIVEYLIQEQPGQEQVAGGEAQRG, the protein stability index worked out at 3.66.
Next, NIVEYLIQEQPGQEQVAGGEAQIG: 3.94.
The result for NIVEYLIQEQPGQEQVAGGEAQCG reads 3.98; that for NIVEYLIQEQPGQEQVAGGEAQGG, 4.19.
Next, NIVEYLIQEQPGQEQVAGGEAQTG: 4.14; NIVEYLIQEQPGQEQVAGGEAQDG: 4.66.
As to NIVEYLIQEQPGQEQVAGGEAQHG, the protein stability index amounted to 3.98.
The result for NIVEYLIQEQPGQEQVAGGEAQEG reads 4.74; that for NIVEYLIQEQPGQEQVAGGEAQVG, 4.09; that for NIVEYLIQEQPGQEQVAGGEAQSG, 4.46.
The result for NIVEYLIQEQPGQEQVAGGEAQAG reads 4.93; that for NIVEYLIQEQPGQEQVAGGEAQMG, 4.33; that for NIVEYLIQEQPGQEQVAGGEAQKG, 4.29.
The result for NIVEYLIQEQPGQEQVHGGEAQPG reads 4.38.
Regarding NIVEYLIQEQPGQEQVDGGEAQPG, the protein stability index was determined as 4.97.
Next, NIVEYLIQEQPGQEQVPGGEAQPG: 4.24; NIVEYLIQEQPGQEQVYGGEAQPG: 3.68; NIVEYLIQEQPGQEQVWGGEAQPG: 2.73.
The result for NIVEYLIQEQPGQEQVQGGEAQPG reads 4.07.
As for NIVEYLIQEQPGQEQVVGGEAQPG, the protein stability index turned out to be 3.68.
The result for NIVEYLIQEQPGQEQVEGGEAQPG reads 4.6; that for NIVEYLIQEQPGQEQVTGGEAQPG, 3.91.
As to NIVEYLIQEQPGQEQVFGGEAQPG, the protein stability index was found to be 3.59.
Next, NIVEYLIQEQPGQEQVIGGEAQPG: 3.87.
The result for NIVEYLIQEQPGQEQVLGGEAQPG reads 3.33; that for NIVEYLIQEQPGQEQVMGGEAQPG, 3.96; that for NIVEYLIQEQPGQEQVNGGEAQPG, 5.16.
Turning to NIVEYLIQEQPGQEQVSGGEAQPG, the protein stability index is 4.72.
Next, NIVEYLIQEQPGQEQVKGGEAQPG: 4.19; NIVEYLIQEQPGQEQVRGGEAQPG: 3.5.
Next, NIVEYLIQEQPGQEQVGGGEAQPG: 4.71.

(Values after the supplement of paper PMC10567573.)
